Experimental data from patent publication US7947279B2, “Peptide having hydrolase activity” (The Trustees of Columbia University in the City of New York, priority 2005, dated 2011).
“Also recorded” adds a separate entry of the source.

Tests used:
[1] = biological target: T1, Uch-L3 (Homo sapiens, UniProt P15374); settings: cited from earlier work
T1 sequence (P15374 1-230): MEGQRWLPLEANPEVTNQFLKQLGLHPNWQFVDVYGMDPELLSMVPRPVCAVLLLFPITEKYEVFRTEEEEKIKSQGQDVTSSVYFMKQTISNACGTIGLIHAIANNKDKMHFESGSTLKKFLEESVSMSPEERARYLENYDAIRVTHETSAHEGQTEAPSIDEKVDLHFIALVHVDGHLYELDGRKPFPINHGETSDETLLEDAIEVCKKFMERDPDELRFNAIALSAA

[2] = test system: monoubiquitin; assay: Monoubiquitin levels (quantitative Western blot); type: cell-based, mouse
Description: (§1) Western Blotting: Protein levels were assessed using standard procedures. Protein extraction was performed using buffer with and without detergent. For the extraction of protein using detergent, hippocampal tissues and cultured hippocampal neurons (5 DIV) were homogenized in RIPA buffer (50 mM Tris-HCl pH 7.4, 1% Triton X-100, 1% sodium deoxycholate, 0.1% SDS, 150 mM sodium chloride, 10 mM sodium fluoride, 30 mM sodium pyrophosphate, 50 mM sodium orthovanadate) containing 1× complete protease inhibitor (Roche) and 1 mM phenylmethylsulfonyl fluoride (PMSF). For extraction of proteins without detergent, hippocampal extracts were homogenized with disposable dounce homogenizers in buffer A, containing 10 mM HEPES pH 7.3, 300 mM sucrose, protease 1× complete protease inhibitor (Roche) and PMSF. After centrifugation at 10,000×g supernatant proteins were resolved on a 8% or 4-20% gradient Tris-Glycine gel, transferred onto PVDF or nitrocellulose membrane and blocked in 5% skim milk in PBS-Tween 0.1% (PBS-T). Membranes were probed with primary antibodies, and after washing with PBS-T incubated with an appropriate HRP-conjugated secondary antibody. The following antibodies were used: mouse monoclonal anti-ubiquitin (Chemicon), rabbit polyclonal anti-pCREB (Upstate Biotech.), rabbit polyclonal anti-PKA-RIIα (Santa Cruz Biotech. Inc), mouse monoclonal anti-Uch-L1 (Novocastra), monoclonal mouse anti-HA (Santa Cruz Biotech. Inc), and anti-PKA IIα. Detection was performed using HRP-conjugated secondary antibodies (Pierce, Rockford, Ill.). To control loading and transfer, protein immunoreactivities were normalized against total extracellular signal-regulated protein kinases (ERK1/2) levels with a rabbit analyzed using a rabbit polyclonal anti-ERK1/2 antibody (Cell Signaling Technology, Inc). NIH IMAGE was used to analyze the scanned blots and quantify the intensity of the protein signals.

[3] = test system: Aβ42; assay: Quantification of amyloid peptides by ELISA in APP/PS1 mice; type: in vivo, mouse; settings: for cortex Aβ levels / hippocampal Aβ levels: 0.02-0.04 g/kg i.p.; for Aβ levels in APP/PS1 mice (words): single injection 0.02-0.04 g/kg i.p.
[4] = test system: cAMP; assay: Intracellular cAMP enzyme immunoassay; type: cell-based, rat; settings: fusion protein 100 nM 24 hrs, Aβ
Description: Intracellular cAMP Enzyme Immunoassay. Hippocampal neurons from E18 rats were dissociated and plated on poly-L-lysine coated 6-well plates in minimum essential medium supplemented with N-2, glucose, albumin, pyruvic acid, antibiotics and antimycotics. […] After 24 hours, cell lysates were obtained and intracellular cAMP levels were measured using cAMP Biotrak Enzymeimmunoassay (EIA) System (Amersham) in accordance with manufacturer's instructions.

[5] = test system: PKA; assay: PKA kinase activity in hippocampal cultures; type: cell-based, rat; settings: fusion protein 100 nM 24 hrs; for basal PKA activity in Aβ-treated cultures: Aβ 24 hrs
Description: PKA Kinase Activity Measurement. Primary hippocampal neurons from E18 rats were dissociated and cultured as described (Vitolo et al, Proc Natl Acad Sci USA 99:13217-13221 (2002)). […]
Hippocampal slices were lysed with RIPA lysis buffer and homogenized by Dounce homogenizer on ice. 5 DIV primary cultures were treated for 24 hrs and cells were lysed with RIPA lysis buffer.
Levels of intracellular PKA kinase activity were measured by PKA Kinase Activity Assay Kit (Stressxpress) according to manufacturer's instructions.
Preparation of Cell Cultures. Hippocampal cell cultures were prepared as previously described (Vitolo et al., 2002). In cell culture experiments fetuses at embryonic day 18 from timed pregnant Sprague-Dawley rats (Taconic Farms) were used. Fetuses were sacrificed and the hippocampi removed. Neurons were then dissociated, plated on 6 well-plates coated with poly-L-lysine and maintained in a defined serum-free medium containing minimum essential medium supplemented with N-2, glucose, albumin, pyruvic acid, antibiotics and antimycotics. […] 5 DIV cells were used for the experiments.

[6] = test system: PKA RIIα; assay: PKA RIIα levels in hippocampal slices (Western blot); type: cell-based, mouse; settings: for Aβ-induced increase in PKA RIIα levels (words): fusion protein 20 nM 1 hr, Aβ 200 nM 20 min
Description: as §1

[7] = test system: hippocampal slices; type: cell-based, mouse
Description: as §1, with “Membranes were probed with primary antibodies, and after washing with PBS-T incubated with an appropriate HRP-conjugated secondary antibody. The following antibodies were used: mouse monoclonal anti-ubiquitin (Chemicon), rabbit polyclonal anti-pCREB (Upstate Biotech.), rabbit polyclonal anti-PKA-RIIα (Santa Cruz Biotech. Inc), mouse monoclonal anti-Uch-L1 (Novocastra), monoclonal mouse anti-HA (Santa Cruz Biotech. Inc), and anti-PKA IIα. Detection was performed using HRP-conjugated secondary antibodies (Pierce, Rockford, Ill.).” left out

[8] = 3-5 month old APP/PS1 mice, sacrificed 3 weeks after injection
[9] = 4 month old APP/PS1 mice, sacrificed 4 hrs after injection
[10] = 4 hrs after injection, 4 month old APP/PS1 mice
[11] = listed as Uch-L1 fusion protein
[12] = listed as TAT-Uch-L1 fusion protein

## CC(=O)O/N=C1\C(=O)N(Cc2cc(Cl)ccc2Cl)c2ccc(Cl)cc21 [LDN-57444, reference compound]
[1]
  IC50: 25 µM

B1: TAT-HA-Uch-L1: fusion protein: 11-amino acid transduction domain of HIV-transactivator protein (TAT) fused with an HA tag and human Uch-L1 (protein)
chain: MQLKPMEINPEMLNKVLSRLGVAGQWRFVDVLGLEEESLGSVPAPACALLLLFPLTAQHENFRKKQIEELKGQEVSPKVYFMKQTIGNSCGTIGLIHAVANNQDKLGFEDGSVLKQFLSETEKMSPEDRAKCFEKNEAIQAAHDAVAQEGQCRVDDKVNFHFILFNNVDGHLYELDGRMPFPVNHGASSEDTLLKDAAKVCREFTEREQGEVRFSAVALCKAA
modifications: left off: small tags and cut ends
[2]; 20 nM fusion protein 1 hour, then 200 nM oligomeric Aβ plus fusion protein 20 min
  mono-ubiquitin levels: 90.25±17.25 % of control
[2]; fusion protein 20 nM 1 hr pre-incubation plus Aβ
  monoubiquitin levels: normal monoubiquitin levels; also recorded: blocks the decrease of monoubiquitin levels
[2]; fusion protein 20 nM 1 hr pre-incubation plus Aβ, listed as TAT-A-Uch-L1 peptide
  monoubiquitin levels: annulled the decrease
[2]; fusion protein 20 nM 1 hr pre-incubation plus Aβ, listed as TAT-Uch-L1 fusion protein
  monoubiquitin levels: re-establishes normal mono-ubiquitin levels
[2]; fusion protein alone
  mono-ubiquitin levels: 121.03±14.69 % of control
[2]; substance alone
  monoubiquitin levels: slight increase
[3]; [8]
  cortex Aβ levels: 90.28±17.38 pmol/mg protein
  hippocampal Aβ levels: 178.60±18.24 pmol/mg protein
[3]; [9]
  cortex Aβ levels: 4.17±0.68 pmol/mg protein
  hippocampal Aβ levels: 6.35±0.54 pmol/mg protein
[3]; [10]
  cortical Aβ42: about 104%
  hippocampal Aβ42: about 94 % that of vehicle-treated APP/PS1 mice
[3]; mice tested for fear conditioning over 21 days
  cortical Aβ42: about 103%
[3]
  Aβ levels in APP/PS1 mice (words): no difference in Aβ42 levels; also recorded: did not change Aβ levels
[3]; [11]
  Aβ levels in APP/PS1 mice (words): did not change Aβ levels
[4]
  cAMP levels in Aβ-treated cultured hippocampal neurons (words): remained low; also recorded: did not affect the decrease in cAMP levels; also recorded: does not rescue the decrease in cAMP levels
[4]; [12]
  cAMP levels in Aβ-treated cultured hippocampal neurons (words): does not re-establish normal cAMP levels
[4]; [11]
  cAMP levels in Aβ-treated cultured hippocampal neurons (words): does not rescue the decrease in cAMP levels
[5]; 3 μM Aβ 24 hrs, glutamate 50 μM 15 min
  glutamate-induced increase in PKA activity in Aβ-treated cultures: rescued the increase in PKA activity; also recorded: rescued the glutamate-induced increase in kinase activity
[5]
  basal PKA activity in Aβ-treated cultures: reversing the Aβ-induced decrease in basal PKA activity; also recorded: re-established; also recorded: increased levels of kinase activity
[5]; [12]
  basal PKA activity in Aβ-treated cultures: re-establishes normal levels
[6]; 20 nM TAT-HA-Uch-L1 1 hr pretreatment plus Aβ42
  IIα regulatory subunit levels: 121.03±14.10 % of control
[6]
  Aβ-induced increase in PKA RIIα levels (words): blocked by pretreatment; also recorded: re-established normal levels of regulatory subunit; also recorded: re-established normal levels of RIIα
[6]; [12]
  Aβ-induced increase in PKA RIIα levels (words): blocks the increase
[6]; [11]
  Aβ-induced increase in PKA RIIα levels (words): blocked
[7]
  localisation in soluble/insoluble protein fractions: localized to the soluble fraction
